Assay results taken from the Human Domainome abundance scans (Beltran et al. 2025).
± gives the uncertainty stated by the source.

B1: Far upstream element-binding protein 1, residues 98 to 169; numbered along this chain, Q96AE4 (parent)
chain: RSVMTEEYKVPDGMVGFIIGRGGEQISRIQQESGCKIQIAPDSGGLPERSCMLTGTPESVQSAKRLLDQIVE

Variants of: B1
Assay: abundance fitness (aPCA) (normalised: wild type 0, dead -1); higher = more abundant; growth selection in yeast, the domain comes from the species named
Settings: Homo sapiens

In order of rising abundance fitness:
1. RSVMTEEYKVPDGMVGFIIGRGGEQISRIQQESGFKIQIAPDSGGLPERSCMLTGTPESVQSAKRLLDQIVE  -1.1 ± 0.07
2. RSVMTEEYKVPDGMVGFIIGRGGEQISRIQQESGPKIQIAPDSGGLPERSCMLTGTPESVQSAKRLLDQIVE  -0.986 ± 0.051
3. RSVMTEEYKVPDGMVGFIIGRGGEQISRIQQESGNKIQIAPDSGGLPERSCMLTGTPESVQSAKRLLDQIVE  -0.955 ± 0.074
4. RSVMTEEYKVPDGMVGFIIGRGGEQISRIQQESGKKIQIAPDSGGLPERSCMLTGTPESVQSAKRLLDQIVE  -0.945 ± 0.051
5. RSVMTEEYKVPDGMVGFIIGRGGEQISRIQQESGQKIQIAPDSGGLPERSCMLTGTPESVQSAKRLLDQIVE  -0.936 ± 0.053
6. RSVMTEEYKVPDGMVGFIIGRGGEQISRIQQESGRKIQIAPDSGGLPERSCMLTGTPESVQSAKRLLDQIVE  -0.935 ± 0.031
7. RSVMTEEYKVPDGMVGFIIGRGGEQISRIQQEDGCKIQIAPDSGGLPERSCMLTGTPESVQSAKRLLDQIVE  -0.868 ± 0.063
8. RSVMTEEYKVPDGMVGFIIGRGGEQISRIQQEPGCKIQIAPDSGGLPERSCMLTGTPESVQSAKRLLDQIVE  -0.865 ± 0.051
9. RSVMTEEYKVPDGMVGFIIGRGGEQISRIQQESGMKIQIAPDSGGLPERSCMLTGTPESVQSAKRLLDQIVE  -0.847 ± 0.045
10. RSVMTEEYKVPDGMVGFIIGRGGEQISRIQQESPCKIQIAPDSGGLPERSCMLTGTPESVQSAKRLLDQIVE  -0.837 ± 0.062
11. RSVMTEEYKVPDGMVGFIIGRGGEQISRIQQESGEKIQIAPDSGGLPERSCMLTGTPESVQSAKRLLDQIVE  -0.835 ± 0.044
12. RSVMTEEYKVPDGMVGFIIGRGGEQISRIQQESGHKIQIAPDSGGLPERSCMLTGTPESVQSAKRLLDQIVE  -0.835 ± 0.059
13. RSVMTEEYKVPDGMVGFIIGRGGEQISRIQQESGDKIQIAPDSGGLPERSCMLTGTPESVQSAKRLLDQIVE  -0.81 ± 0.06
14. RSVMTEEYKVPDGMVGFIIGRGGEQISRIQQPSGCKIQIAPDSGGLPERSCMLTGTPESVQSAKRLLDQIVE  -0.796 ± 0.053
15. RSVMTEEYKVPDGMVGFIIGRGGEQISRIQQEWGCKIQIAPDSGGLPERSCMLTGTPESVQSAKRLLDQIVE  -0.59 ± 0.035
16. RSVMTEEYKVPDGMVGFIIGRGGEQISRIQQESGLKIQIAPDSGGLPERSCMLTGTPESVQSAKRLLDQIVE  -0.554 ± 0.027
17. RSVMTEEYKVPDGMVGFIIGRGGEQISRIQQENGCKIQIAPDSGGLPERSCMLTGTPESVQSAKRLLDQIVE  -0.534 ± 0.059
18. RSVMTEEYKVPDGMVGFIIGRGGEQISRIQQEGGCKIQIAPDSGGLPERSCMLTGTPESVQSAKRLLDQIVE  -0.522 ± 0.026
19. RSVMTEEYKVPDGMVGFIIGRGGEQISRIQQESGGKIQIAPDSGGLPERSCMLTGTPESVQSAKRLLDQIVE  -0.489 ± 0.025
20. RSVMTEEYKVPDGMVGFIIGRGGEQISRIQQEYGCKIQIAPDSGGLPERSCMLTGTPESVQSAKRLLDQIVE  -0.435 ± 0.049
21. RSVMTEEYKVPDGMVGFIIGRGGEQISRIQQEQGCKIQIAPDSGGLPERSCMLTGTPESVQSAKRLLDQIVE  -0.431 ± 0.037
22. RSVMTEEYKVPDGMVGFIIGRGGEQISRIQQEMGCKIQIAPDSGGLPERSCMLTGTPESVQSAKRLLDQIVE  -0.414 ± 0.036
23. RSVMTEEYKVPDGMVGFIIGRGGEQISRIQQESWCKIQIAPDSGGLPERSCMLTGTPESVQSAKRLLDQIVE  -0.364 ± 0.037
24. RSVMTEEYKVPDGMVGFIIGRGGEQISRIQQELGCKIQIAPDSGGLPERSCMLTGTPESVQSAKRLLDQIVE  -0.325 ± 0.028
25. RSVMTEEYKVPDGMVGFIIGRGGEQISRIQQESICKIQIAPDSGGLPERSCMLTGTPESVQSAKRLLDQIVE  -0.316 ± 0.06
26. RSVMTEEYKVPDGMVGFIIGRGGEQISRIQQEIGCKIQIAPDSGGLPERSCMLTGTPESVQSAKRLLDQIVE  -0.313 ± 0.054
27. RSVMTEEYKVPDGMVGFIIGRGGEQISRIQQEHGCKIQIAPDSGGLPERSCMLTGTPESVQSAKRLLDQIVE  -0.308 ± 0.046
28. RSVMTEEYKVPDGMVGFIIGRGGEQISRIQQESYCKIQIAPDSGGLPERSCMLTGTPESVQSAKRLLDQIVE  -0.269 ± 0.063
29. RSVMTEEYKVPDGMVGFIIGRGGEQISRIQQESGIKIQIAPDSGGLPERSCMLTGTPESVQSAKRLLDQIVE  -0.261 ± 0.033
30. RSVMTEEYKVPDGMVGFIIGRGGEQISRIQQESVCKIQIAPDSGGLPERSCMLTGTPESVQSAKRLLDQIVE  -0.256 ± 0.028
31. RSVMTEEYKVPDGMVGFIIGRGGEQISRIQQYSGCKIQIAPDSGGLPERSCMLTGTPESVQSAKRLLDQIVE  -0.235 ± 0.048
32. RSVMTEEYKVPDGMVGFIIGRGGEQISRIQQESFCKIQIAPDSGGLPERSCMLTGTPESVQSAKRLLDQIVE  -0.222 ± 0.048
33. RSVMTEEYKVPDGMVGFIIGRGGEQISRIQQEFGCKIQIAPDSGGLPERSCMLTGTPESVQSAKRLLDQIVE  -0.219 ± 0.054
34. RSVMTEEYKVPDGMVGFIIGRGGEQISRIQQFSGCKIQIAPDSGGLPERSCMLTGTPESVQSAKRLLDQIVE  -0.208 ± 0.051
35. RSVMTEEYKVPDGMVGFIIGRGGEQISRIQQESGTKIQIAPDSGGLPERSCMLTGTPESVQSAKRLLDQIVE  -0.172 ± 0.03
36. RSVMTEEYKVPDGMVGFIIGRGGEQISRIQQGSGCKIQIAPDSGGLPERSCMLTGTPESVQSAKRLLDQIVE  -0.166 ± 0.026
37. RSVMTEEYKVPDGMVGFIIGRGGEQISRIQQECGCKIQIAPDSGGLPERSCMLTGTPESVQSAKRLLDQIVE  -0.158 ± 0.037
38. RSVMTEEYKVPDGMVGFIIGRGGEQISRIQQESGSKIQIAPDSGGLPERSCMLTGTPESVQSAKRLLDQIVE  -0.154 ± 0.025
39. RSVMTEEYKVPDGMVGFIIGRGGEQISRIQWESGCKIQIAPDSGGLPERSCMLTGTPESVQSAKRLLDQIVE  -0.153 ± 0.034
40. RSVMTEEYKVPDGMVGFIIGRGGEQISRIQQESSCKIQIAPDSGGLPERSCMLTGTPESVQSAKRLLDQIVE  -0.15 ± 0.03
41. RSVMTEEYKVPDGMVGFIIGRGGEQISRIQQESLCKIQIAPDSGGLPERSCMLTGTPESVQSAKRLLDQIVE  -0.147 ± 0.031
42. RSVMTEEYKVPDGMVGFIIGRGGEQISRIQQESTCKIQIAPDSGGLPERSCMLTGTPESVQSAKRLLDQIVE  -0.124 ± 0.035
43. RSVMTEEYKVPDGMVGFIIGRGGEQISRIQQNSGCKIQIAPDSGGLPERSCMLTGTPESVQSAKRLLDQIVE  -0.12 ± 0.062
44. RSVMTEEYKVPDGMVGFIIGRGGEQISRIQQESMCKIQIAPDSGGLPERSCMLTGTPESVQSAKRLLDQIVE  -0.117 ± 0.04
45. RSVMTEEYKVPDGMVGFIIGRGGEQISRIQQESACKIQIAPDSGGLPERSCMLTGTPESVQSAKRLLDQIVE  -0.1 ± 0.028
46. RSVMTEEYKVPDGMVGFIIGRGGEQISRIQQCSGCKIQIAPDSGGLPERSCMLTGTPESVQSAKRLLDQIVE  -0.096 ± 0.046
47. RSVMTEEYKVPDGMVGFIIGRGGEQISRIQQESCCKIQIAPDSGGLPERSCMLTGTPESVQSAKRLLDQIVE  -0.095 ± 0.043
48. RSVMTEEYKVPDGMVGFIIGRGGEQISRIQQESDCKIQIAPDSGGLPERSCMLTGTPESVQSAKRLLDQIVE  -0.094 ± 0.042
49. RSVMTEEYKVPDGMVGFIIGRGGEQISRIQQLSGCKIQIAPDSGGLPERSCMLTGTPESVQSAKRLLDQIVE  -0.092 ± 0.028
50. RSVMTEEYKVPDGMVGFIIGRGGEQISRIQYESGCKIQIAPDSGGLPERSCMLTGTPESVQSAKRLLDQIVE  -0.09 ± 0.055
51. RSVMTEEYKVPDGMVGFIIGRGGEQISRIQFESGCKIQIAPDSGGLPERSCMLTGTPESVQSAKRLLDQIVE  -0.089 ± 0.047
52. RSVMTEEYKVPDGMVGFIIGRGGEQISRIQGESGCKIQIAPDSGGLPERSCMLTGTPESVQSAKRLLDQIVE  -0.089 ± 0.026
53. RSVMTEEYKVPDGMVGFIIGRGGEQISRIQQESGVKIQIAPDSGGLPERSCMLTGTPESVQSAKRLLDQIVE  -0.087 ± 0.026
54. RSVMTEEYKVPDGMVGFIIGRGGEQISRIQQESQCKIQIAPDSGGLPERSCMLTGTPESVQSAKRLLDQIVE  -0.086 ± 0.041
55. RSVMTEEYKVPDGMVGFIIGRGGEQISRIQQESKCKIQIAPDSGGLPERSCMLTGTPESVQSAKRLLDQIVE  -0.081 ± 0.04
56. RSVMTEEYKVPDGMVGFIIGRGGEQISRIQQKSGCKIQIAPDSGGLPERSCMLTGTPESVQSAKRLLDQIVE  -0.077 ± 0.04
57. RSVMTEEYKVPDGMVGFIIGRGGEQISRIQQDSGCKIQIAPDSGGLPERSCMLTGTPESVQSAKRLLDQIVE  -0.076 ± 0.044
58. RSVMTEEYKVPDGMVGFIIGRGGEQISRIQQASGCKIQIAPDSGGLPERSCMLTGTPESVQSAKRLLDQIVE  -0.071 ± 0.033
59. RSVMTEEYKVPDGMVGFIIGRGGEQISRIQQESRCKIQIAPDSGGLPERSCMLTGTPESVQSAKRLLDQIVE  -0.071 ± 0.026
60. RSVMTEEYKVPDGMVGFIIGRGGEQISRIQQEAGCKIQIAPDSGGLPERSCMLTGTPESVQSAKRLLDQIVE  -0.068 ± 0.027
61. RSVMTEEYKVPDGMVGFIIGRGGEQISRIQQMSGCKIQIAPDSGGLPERSCMLTGTPESVQSAKRLLDQIVE  -0.067 ± 0.038
62. RSVMTEEYKVPDGMVGFIIGRGGEQISRIQMESGCKIQIAPDSGGLPERSCMLTGTPESVQSAKRLLDQIVE  -0.061 ± 0.04
63. RSVMTEEYKVPDGMVGFIIGRGGEQISRIQHESGCKIQIAPDSGGLPERSCMLTGTPESVQSAKRLLDQIVE  -0.06 ± 0.047
64. RSVMTEEYKVPDGMVGFIIGRGGEQISRIQQESECKIQIAPDSGGLPERSCMLTGTPESVQSAKRLLDQIVE  -0.06 ± 0.029
65. RSVMTEEYKVPDGMVGFIIGRGGEQISRIQQQSGCKIQIAPDSGGLPERSCMLTGTPESVQSAKRLLDQIVE  -0.059 ± 0.035
66. RSVMTEEYKVPDGMVGFIIGRGGEQISRIQIESGCKIQIAPDSGGLPERSCMLTGTPESVQSAKRLLDQIVE  -0.053 ± 0.048
67. RSVMTEEYKVPDGMVGFIIGRGGEQISRIQQESHCKIQIAPDSGGLPERSCMLTGTPESVQSAKRLLDQIVE  -0.051 ± 0.052
68. RSVMTEEYKVPDGMVGFIIGRGGEQISRIQQVSGCKIQIAPDSGGLPERSCMLTGTPESVQSAKRLLDQIVE  -0.05 ± 0.029
69. RSVMTEEYKVPDGMVGFIIGRGGEQISRIQLESGCKIQIAPDSGGLPERSCMLTGTPESVQSAKRLLDQIVE  -0.043 ± 0.028
70. RSVMTEEYKVPDGMVGFIIGRGGEQISRIQQESGAKIQIAPDSGGLPERSCMLTGTPESVQSAKRLLDQIVE  -0.036 ± 0.034
71. RSVMTEEYKVPDGMVGFIIGRGGEQISRIQQETGCKIQIAPDSGGLPERSCMLTGTPESVQSAKRLLDQIVE  -0.034 ± 0.032
72. RSVMTEEYKVPDGMVGFIIGRGGEQISRIQSESGCKIQIAPDSGGLPERSCMLTGTPESVQSAKRLLDQIVE  -0.025 ± 0.029
73. RSVMTEEYKVPDGMVGFIIGRGGEQISRIQTESGCKIQIAPDSGGLPERSCMLTGTPESVQSAKRLLDQIVE  -0.024 ± 0.035
74. RSVMTEEYKVPDGMVGFIIGRGGEQISRIQRESGCKIQIAPDSGGLPERSCMLTGTPESVQSAKRLLDQIVE  -0.014 ± 0.024
75. RSVMTEEYKVPDGMVGFIIGRGGEQISRIQNESGCKIQIAPDSGGLPERSCMLTGTPESVQSAKRLLDQIVE  -0.013 ± 0.05
